The values that follow come from patent publication US20190328898A1 (AGENSYS, published 2019).

Experiment [1] deals with T1, 161P2F10B protein (human, UniProt O14638 1-875).
T1 sequence: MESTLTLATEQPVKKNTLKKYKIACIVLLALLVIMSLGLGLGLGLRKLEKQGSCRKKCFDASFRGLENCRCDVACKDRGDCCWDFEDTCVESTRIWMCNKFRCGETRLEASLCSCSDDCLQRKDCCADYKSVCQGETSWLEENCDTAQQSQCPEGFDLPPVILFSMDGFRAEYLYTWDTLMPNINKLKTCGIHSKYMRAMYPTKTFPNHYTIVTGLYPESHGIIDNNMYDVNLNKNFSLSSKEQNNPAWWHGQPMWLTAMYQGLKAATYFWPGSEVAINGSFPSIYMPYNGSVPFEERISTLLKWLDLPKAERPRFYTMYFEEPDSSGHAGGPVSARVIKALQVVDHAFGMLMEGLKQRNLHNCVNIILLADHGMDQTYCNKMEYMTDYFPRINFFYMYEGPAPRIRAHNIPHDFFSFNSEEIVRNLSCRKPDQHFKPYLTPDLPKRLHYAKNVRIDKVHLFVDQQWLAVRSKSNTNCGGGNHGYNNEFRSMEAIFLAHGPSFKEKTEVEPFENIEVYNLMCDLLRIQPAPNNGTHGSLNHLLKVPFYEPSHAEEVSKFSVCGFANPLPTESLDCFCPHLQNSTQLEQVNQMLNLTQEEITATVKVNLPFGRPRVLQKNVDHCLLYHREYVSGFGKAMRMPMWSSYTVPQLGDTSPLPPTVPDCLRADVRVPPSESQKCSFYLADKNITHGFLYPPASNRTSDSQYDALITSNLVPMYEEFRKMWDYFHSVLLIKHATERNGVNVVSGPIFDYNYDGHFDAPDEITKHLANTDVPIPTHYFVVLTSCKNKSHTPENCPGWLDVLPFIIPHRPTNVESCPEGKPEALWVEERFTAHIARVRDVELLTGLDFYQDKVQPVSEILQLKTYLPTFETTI
Description: cell-based or functional assay.

In experiment [2] the target is T1, 161P2F10B protein. The experiment is described as follows: FACS saturation binding on Ku812 cells, one site fit of MFI. As for the experimental part:
FIG. 6. Cell Binding and Affinity of H16-7.8 and H16-7.8mcMMAF. H16-7.8 and H16-7.8mcMMAF were tested for the binding affinity to 161P2F10B endogenously expressed on Ku812 cells. Briefly, eleven (11) dilutions of H16-7.8 or H16-7.8mcMMAF were incubated with Ku812 cells (50,000 cells per well) overnight at 4° C. at a final concentration of 160 nM to 0.0001 nM. At the end of the incubation, cells were washed and incubated with anti-hIgG-PE detection antibody for 45 min at 4° C. After washing the unbound detection antibodies, the cells were analyzed by FACS. Mean Florescence Intensity (MFI) values are obtained (See, Table IV). MFI values were entered into Graphpad Prisim software and analyzed using the one site binding (hyperbola) equation of Y=Bmax*X/(Kd+X) to generate H16-7.8 or H16-7.8mcMMAF saturation curves shown in FIG. 6. […]
H16-7.8 and H16-7.8mcMMAF were tested for the binding affinity to 161P2F10B endogenously expressed on Ku812 cells. […] After washing the unbound detection antibodies, the cells are analyzed by FACS. […] MFI values were entered into Graphpad Prisim software and analyzed using the one site binding (hyperbola) equation of Y=Bmax*X/(Kd+X) to generate H16-7.8 or H16-7.8mcMMAF saturation curves shown in FIG. 6. […]

Experiment [3] concerns the target T1, 161P2F10B protein. The experiment is described as follows: FACS saturation binding on KU812 cells, twelve dilutions, one site fit, n=4. As for the experimental part:
H16-7.8 and H16-7.8mcMMAF were tested for their binding affinity to 161P2F10B expressed on KU812 cells (human chronic myelogenous leukemia cells, ATCC). Briefly, twelve (12) dilutions of H16-7.8 or H16-7.8mcMMAF were incubated with KU812 cells (50,000 cells per well) overnight at 4° C. at a final concentration of 160 nM to 0.004 nM. At the end of the incubation, cells are washed and incubated with anti-hIgG-PE detection antibody for 45 min at 4° C. After washing the unbound detection antibodies, the cells are analyzed by FACS.
MFI values were entered into Graphpad Prisim software and analyzed using the one site binding (hyperbola) equation of Y=Bmax*X/(Kd+X) to generate H16-7.8 and H16-7.8mcMMAF saturation curves. Bmax is the MFI value at maximal binding of H16-7.8 or H16-7.8mcMMAF to KU812; Kd is H16-7.8 or H16-7.8mcMMAF binding affinity which are the concentration of H16-7.8 or H16-7.8mcMMAF required to reach halfmaximal binding. […] (n=4).

B1: H16-7.8mcMMAF (antibody, V domains shown)
VH: QVQLQESGPGLVKPSQTLSLTCTVSGGSISSGGYYWSWIRQHPGKGLEWIGIIYYSGSTYYNPSLKSRVTISVDTSKNQFSLKLNSVTAADTAVFYCARVAIVTTIPGGMDVWGQGTTVTVSS
VL: EIVLTQSPDFQSVTPKEKVTITCRASQSIGISLHWYQQKPDQSPKLLIKYASQSFSGVPSRFSGSGSGTDFTLTINSLEAEDAATYYCHQSRSFPWTFGQGTKVEIKR
modifications: mcMMAF on the cysteine of peptide S208FNRGEC214 in part of the chains (0 or 1 drug per L chain); mcMMAF (maleimidocaproyl-monomethyl auristatin F) on cysteine thiols after partial reduction; predominantly 2 drugs on the hinge peptide C225-K250; 0 to 5 drugs per H chain observed; overall DAR 4.0
notes: a mixture of drug loadings, predominant species 4 drugs; also called H16-7.8mcMMAF ADC; ADC H16-7.8mcMMAF
The term Kd denotes the equilibrium constant for the complex coming apart. The low end stands for a tighter complex, the high end for a looser complex. Regarding B1, in the experiment with 161P2F10B protein [1], the “IC 50, inhibition of proliferation of KU812 cells (Alamar blue, 6 days), Lot (1)” value came to 200 pM; the “IC 50, inhibition of proliferation of KU812 cells (Alamar blue, 6 days), Lot (2)” value is 100 pM; the “Specific cytotoxicity activity on KU812 cells, IC50 (Alamar Blue, 6 days)” value amounted to 150 pM. Further, in the experiment with 161P2F10B protein [2], the Kd is 190 pM. This molecule also had a Kd with 161P2F10B protein [3] of 250 pM.

B2: 161P2F10B MAb H16-7.8 (antibody, V domains shown)
VH: B1 VH
VL: B1 VL
notes: Fully human IgG2 kappa from XenoMouse; also called native H16-7.8; recombinant H16-7.8
Regarding B2, the values for the equilibrium dissociation constant (Kd) with 161P2F10B protein [2] and in the experiment with 161P2F10B protein [3] were 60 pM and 80 pM, respectively.
